Reference: PMC8131363 (Scientific Reports, 2021)
Starred links: 1 amine or outer side, 2 acyl side, 3 side chain; linkers in the order of their positions; H or OH if unused. Non-standard residues stand in square brackets, D forms with d. No end group written: not given here. γGlu = O=C(O)[C@H](CCC(=O)[*:2])N[*:1]; βAsp = O=C(O)[C@H](CC(=O)[*:2])N[*:1]; Abu = CC[C@H](N)C(=O)O

Biological target: domestic cat Calcium Sensing Receptor (cCaSR) (Felis catus)

Substance | EC50 of agonist activity, luminescence (natClytin) in HEK T-Rex/natClytin cells inducibly expressing cCaSR, calcium-free buffer; activity grade + [mM] | EC50 of agonist activity, luminescence (natClytin) in HEK T-Rex/natClytin cells inducibly expressing cCaSR, calcium-free buffer; activity grade ++ [mM]
[βAsp]-Leu | 3.15 | –
[βAsp]-Phe | > 10 | –
[γGlu]-Ala | > 10 | –
[γGlu]-Cys | > 10 | –
[γGlu]-Gln | > 10 | –
[γGlu]-Glu | – | 2.07
[γGlu]-Glu-Gln | > 10 | –
[γGlu]-Glu-Glu | – | 2.35
[γGlu]-Gly | > 10 | –
[γGlu]-Leu | > 10 | –
[γGlu]-Met | > 10 | –
[γGlu]-Trp | > 10 | –
[γGlu]-Tyr | – | 3.88
[γGlu]-Val | – | 4.52
[γGlu]-Val-Gly | – | 4.22
[γGlu]-[Abu]-Gly | – | 2.65
γ-D-Glu-Trp (peptide) | – | 4.2
γ-Glu-Abu (peptide) | > 10 | –
γ-Glu-Phe (peptide) | – | 2.32
